Results on two molecules are retold here after US20240076389A1 (NATIONAL RESEARCH COUNCIL OF CANADA, published 2024).

The target in test [1] is T1, recombinant human AXL extracellular domain, C-terminally His8-tagged (rhAXL-ECD) (human, UniProt P30530 26-451).
T1 construct: Made in CHO cells; also called (rh)AXL-ECD His8; human AXL ECD
T1 sequence: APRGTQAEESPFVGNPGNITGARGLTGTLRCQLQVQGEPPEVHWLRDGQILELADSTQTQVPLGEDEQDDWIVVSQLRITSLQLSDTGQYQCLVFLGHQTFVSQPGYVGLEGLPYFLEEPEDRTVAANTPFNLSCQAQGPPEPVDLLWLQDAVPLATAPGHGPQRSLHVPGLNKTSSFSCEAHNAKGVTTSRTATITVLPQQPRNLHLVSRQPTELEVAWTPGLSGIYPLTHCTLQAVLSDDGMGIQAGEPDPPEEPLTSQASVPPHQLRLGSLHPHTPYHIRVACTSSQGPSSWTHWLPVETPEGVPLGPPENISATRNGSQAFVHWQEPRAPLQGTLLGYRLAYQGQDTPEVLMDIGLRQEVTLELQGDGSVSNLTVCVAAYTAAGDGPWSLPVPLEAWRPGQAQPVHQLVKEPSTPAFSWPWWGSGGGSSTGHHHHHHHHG
In words: ELISA on coated AXL ECD (100 ng/well), HRP-protein A.

The target in test [2] is T2, mouse AXL extracellular domain (Sino cat. 51026-M08H) (mouse, UniProt Q00993 19-445).
T2 construct: extracellular domain; Bought protein; also called mouse AXL ECD
T2 sequence (looked up): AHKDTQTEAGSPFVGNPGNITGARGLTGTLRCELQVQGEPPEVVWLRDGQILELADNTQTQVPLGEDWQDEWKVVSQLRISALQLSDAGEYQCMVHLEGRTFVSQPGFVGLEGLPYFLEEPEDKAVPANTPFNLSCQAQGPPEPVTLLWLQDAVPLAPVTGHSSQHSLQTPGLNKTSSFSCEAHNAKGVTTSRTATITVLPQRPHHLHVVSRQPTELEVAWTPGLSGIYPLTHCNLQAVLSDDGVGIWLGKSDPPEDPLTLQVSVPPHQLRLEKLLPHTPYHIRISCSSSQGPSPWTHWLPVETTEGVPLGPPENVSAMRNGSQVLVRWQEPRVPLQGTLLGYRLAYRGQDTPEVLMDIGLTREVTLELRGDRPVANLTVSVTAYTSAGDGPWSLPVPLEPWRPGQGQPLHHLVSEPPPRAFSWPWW
Description: ELISA on coated mouse AXL ECD (100 ng/well). Background: In an ELISA, binding on a coated surface is turned into a signal by an enzyme label.

The target of test [3] is T1, recombinant human AXL extracellular …. In words: SPR, VHH-Fc captured, AXL ECD flowed, single-concentration kinetics (estimate). As to the method:
(§1) For VH Hs and VHH-Fcs, binding to human and cynomolgus AXL ECD was assessed using either a Biacore T200 instrument or a Biacore 3000 instrument. Either human AXL ECD or anti-human Fc antibody was immobilized on a research-grade CM5 series S sensor chip (T200, rhAXL ECD) or a C1 sensor chip (3000, anti-human Fc) using amine coupling in acetate buffer. VHH-Fcs were captured on anti-human Fc surfaces. Either monomeric VHHs (for rhAXL ECD surfaces) or human and cyno AXL ECD (for VHH-Fc surfaces) were flowed over the surfaces at different concentration ranges. Running buffers were HBS-EP (3000) and HBS-EP+(T200). Flow rates were 10-40 ul/min. All binding studies were performed at 25° C. Surfaces were regenerated using 10 mM glycine, pH 1.5.

In test [4] the target is T3, recombinant cynomolgus AXL extracellular domain (cynomolgus).
T3 construct: range 1-449; also called Cyno AXL; cyno AXL ECD
Described as above. As to the method:
as §1

Test [5] concerns the target T1, recombinant human AXL extracellular …. In words: ELISA on coated AXL ECD (100 ng/well), VHH-Fc, HRP-protein A. As to the method:
ELISA. ELISAs against human, cyno and mouse AXL ECDs were conducted by immobilizing 100 ng of each protein in wells of Nunc MaxiSorp microplates overnight. Human AXL (aa 1-451) and cyno AXL (aa 1-449) were produced recombinantly as described in Example 10. Mouse AXL was purchased from Sino (cat. 51026-M08H). The next day, plates were blocked with 5% (w/v) dried milk in PBS. Murine mAbs (either hybridoma- or recombinantly-produced) or VHH-Fcs were diluted in PBS containing 1% BSA and 0.1% Tween-20 and added to wells for 2 hours at room temperature. Wells were washed 5× with PBS containing 0.1% Tween-20, then HRP-labeled protein A (diluted 1:1000 in PBS containing 1% BSA and 0.1% Tween™-20) was added to wells for 1 hour at room temperature. Wells were washed again 5× with PBS/0.1% Tween-20 and developed using TMB substrate. Absorbance was measured at 450 nm. As a positive control for mouse AXL binding, a commercial anti-mouse AXL mAb (clone 175128, R&D Systems MAB8541, rat IgG2A) was used and detected with donkey […] secondary antibody.

Broadly, the EC50 is the midpoint of the concentration-response curve. In general, Kd refers to the constant that tells how readily two partners part at equilibrium. By koff is commonly meant the rate constant with which the complex falls apart. The kon is the rate constant with which the complex forms.

B1: hFC-F107-10G1 (antibody, human IgG1, kappa, V domains shown)
VH: EVNLVESGGGVVKPGASLKLSCEASGFTFSNYGMSWVRQTSDKRLEWVASISGGGGRTYYLDNVKGRFIISRENAKNTLYLQMSSLKSEDTALFYCARGARASYFAMDYWGQGSSVTVSS
VL: VIVMTQSHKFMSTSVGDRVSITCKASQDVTTAVAWYQQKPGQSPKLLIYWASTRHTGVPDRFTGSGSGTDYSLTISNVQTEDLAFYYCQQHFTTPLTFGAGTKLELKR
notes: Chimeric mAb, human IgG1 / human kappa constant regions; also called mAb F107-10G1
Consider B1, for which the EC50 in test [1] is 2 nM. Further, the binding result in test [2] was “no binding”.

B2: NRC-sdAb001-Fc (VHH-human IgG1 Fc fusion) (Fc fusion)
chain: QVKLEESGGGLVQAGGSLRLSCTASASISSFDIMGWYRQAPGKQRELVAAITTLDIANYRDSVKGRFTISRDNAKNTVYLQMDSLKPEDTARYHCAAFQSDQNYWGQGTQVTVSS
notes: VHH fused N-terminally to human IgG1 Fc, made in HEK293 cells; also called NRC-sdAb0001-Fc; NRC-sdAb001-hIgG1; not shown: human IgG1 Fc
For the molecule B2, in test [3], the Kd was 6 nM, the koff was 0.0072 s⁻¹ and the kon is 1.3e+06 M⁻¹ s⁻¹. In test [4], the Kd is 8 nM, the koff was 0.0072 s⁻¹ and the association rate constant (kon) is 920000 M⁻¹ s⁻¹. Also, in test [5], the EC50 worked out at 1 nM.
